Assay results: patent US20170173114A1, “METHODS AND COMPOSITIONS FOR INDUCTION OF UCP1 EXPRESSION” (Joslin Diabetes Center, Inc., priority 2014, published 2017)

Experiments:
Assay type in all cases: cell-based, murine
PTGS2 (COX2) = test: PTGS2 mRNA / COX2 protein expression in WT-1 brown preadipocytes; conditions: for PTGS2 mRNA expression relative to the control: 200 ng/mL with insulin and T3, three days
Description: (§1) Total RNA was isolated with QIAzol lysis reagent (Qiagen, Valencia, Calif.) and purified by RNeasy Mini columns (Qiagen) following the manufacture's instructions. cDNA was prepared from total RNA using the Advantage RT-PCR kit (BD Biosciences, Palo Alto, Calif.) according to manufacturer's instructions. Diluted cDNA was used in a PCR reaction with SYBR Green Master Mix (Applied Biosystems, Foster City, Calif.) and primers specifically designed for detection of the gene of interest. PCR reactions were run in duplicate for each sample and quantitated in the ABI Sequence Detection System (Applied Biosystems). Data were expressed as arbitrary units after normalization to levels of expression of internal controls for each sample. Sequences of primers for specific genes are each obtained from the published literature or designed using publically available gene sequence databases. Unless otherwise indicated, gene expression data described in the examples below was obtained using QPCR.
Cells were harvested in lysis buffer (50 mM HEPES, 137 mM NaCl, 1 mM MgCl2, 1 mM CaCl2, 10 mM Na2P2O7, 10 mM NaF, 2 mM EDTA, 10% glycerol, 1% Igepal CA-630, 2 mM vanadate, 10 μg/ml of leupeptin, 10 μg/ml of aprotinin, 2 mM phenylmethylsulfonyl fluoride; pH 7.4). After lysis, lysates were clarified by centrifugation at 12,000×g for 20 min at 4° C., the amount of protein in the supernatants was determined by the Bradford Protein Assay (Bio-Rad Laboratories, Hercules, Calif.). Proteins were directly solubilized in Laemmli sample buffer. Equal amounts of lysates were separated by sodium dodecyl sulfate-polyacrylamide gel electrophoresis and transferred to Immobolin-P membranes. Membranes were blocked overnight at 4° C. and incubated with the indicated antibody for 2 hours at room temperature. Specifically bound primary antibodies were detected with peroxidase-coupled secondary antibody and enhanced chemiluminescence (ECL, Amersham Biosciences, Piscataway, N.J.).
To determine if FGF4, FGF5, FGF6, FGF10, FGF16, FGF17, FGF18 or FGF20 induced either UCP1 mRNA or PTGS2 mRNA expression, murine brown preadipocyte WT-1 cells (Tseng et al., Nat. Cell. Biol. (2005) 7(6):601-611) were grown in growth media (DMEM-high glucose+10% FBS) supplemented with FGF4, FGF5, FGF6, FGF10, FGF16, FGF17, FGF18, FGF20 or buffer (control) in combination with insulin (20 nM) and triidothyronine (T3, 1 nM) for three days. All FGFs were used at a dosage of 200 ng/mL. mRNA was isolated and UCP1 and PTGS2 gene expression levels were evaluated by quantitative reverse transcription polymerase chain reaction (Q-RT-PCR) analysis. All experiments were performed triplicate and the data are presented as mean+/−SEM.
To determine if FGF1 or FGF10 induce UCP1 mRNA expression or PTGS2 mRNA expression, murine brown preadipocyte WT-1 cells (Tseng et al., Nat. Cell. Biol. (2005) 7(6):601-611) were grown in growth media (DMEM-high glucose+10% FBS) supplemented with FGF1, FGF10 or vehicle (control) in combination with insulin (20 nM) and triidothyronine (T3, 1 nM) for three days. FGF1 and FGF10 were used at a dosage of 50 ng/mL, 100 ng/mL or 300 ng/mL. mRNA was isolated and UCP1 and PTGS2 expression levels were evaluated by quantitative reverse transcription polymerase chain reaction (Q-RT-PCR) analysis. All experiments were performed triplicate and the data are presented as mean+/−SEM.
To test the role of specific prostaglandins (PGs) in activating UCP1 expression, WT-1 brown adipocytes were pretreated with PGE2, PGI2 and FGF6 for 24 hours. mRNA expression levels of UCP1, PTGS2, LDHA, PDK1 and PKM2 were then measured.

UCP1 = UCP1 mRNA expression (Q-RT-PCR) in WT-1 brown preadipocytes; conditions: for expression of UCP1: 200 ng/mL with insulin and T3, three days
Description: as §1
The effect of FGF6 on differentiation of WT-1 murine brown preadipocytes was also examined. WT-1 cells can be induced to undergo brown adipocyte differentiation, characterized by lipid accumulation and expression of adipogenic and brown fat markers, as described above (Klein et al. (1999) J Biol Chem 274:34795; Tseng et al. (2005) Nat Cell Biol 7:601). WT-1 cells were treated with FGF6 in growth media (DMEM+10% FBS), a vehicle control (“control” or “C” referred to in FIGS. 3A-D), or induction media (“induction” or “I” referred to in FIGS. 3A-D) as described above for seven days. Following the treatment, cells were examined for the color of the culture media in combination with oil Red O staining, expression of adipogenic markers, expression of brown fat markers, immunofluorescent staining of cells with UCP1 and DPAI, and Western blot analysis to determine the presence of UCP1 and β-tubulin. The results are described in FIGS. 3A to 3D.
UCP1 mRNA expression in brown adipocyte cells was determined at FGF6 concentrations ranging from 0 to 300 ng/ml in the absence of induction cocktail.
In order to determine the length of time necessary to induce UCP1 expression upon exposure to of cells to FGF6, an experiment was performed whereby FGF6 was administered to brown preadipocytes at a concentration of 200 ng/ml and UCP1 expression was determined. FGF21 and a control were also used in the time course experiment. FGF21, a member of the endocrine FGF ligands that has been implicated in the browning of white fat (Fisher F. M. et al., Genes Dev. 26:271-281, 2012). […] FGF6 could acutely induce a significant increase of UCP1 expression as early as 4 hours after a 200 ng/ml dose, as described in FIG. 4B. At 24 hours, the fold-induction of UCP1 mRNA by FGF6 reached 700-fold higher than the untreated cells, as described in FIG. 4B.
To assess FGF6's role in the regulation of mitochondrial activity, FGF6 was stably expressed in WT-1 brown preadipocytes and 3T3-F442A white preadipocytes. Stable cells were generated by viral infection followed by drug selection.
FGF2, FGF6 and FGF9 were used at a dosage of 50 ng/mL, 100 ng/mL, 200 ng/mL or 300 ng/mL. FGF21 was used at the dosage of 50 ng/ml and 500 ng/mL. The concentration of BMP7 was 3.3 nM. RNA was isolated and UCP1 and PPARγ expression levels were evaluated by quantitative reverse transcription polymerase chain reaction (Q-RT-PCR) analysis after 24 hours (i.e., 1 day) (FIG. 14A), 2 days (FIG. 14B), 5 days (FIG. 14C) and 7 days (FIG. 14D) of treatment. All experiments were performed triplicate and the data are presented as mean+/−SEM.
FGF2, FGF6 and FGF9 were used at a dosage of 200 ng/mL. FGF21 was used at a dosage of 500 ng/mL. The concentration of BMP7 was 3.3 nM. mRNA was isolated and UCP1 and PPARγ expression levels were evaluated by quantitative reverse transcription polymerase chain reaction (Q-RT-PCR) analysis after 24 hours (i.e., 1 day), 2 days, 5 days and 7 days of treatment (FIG. 15). […]

UCP1 and PTGS2 = UCP1 and PTGS2 mRNA in WT-1 cells undergoing adipocyte differentiation; conditions: after induction media; 200 ng/mL FGF or 3.3 nM BMP7, 2 days
Description: In a separate experiment investigating the ability of FGF proteins to induce UCP1 expression in cells undergoing adipocyte differentiation, WT-1 preadipocyte cells were differentiated by culturing in growth media supplemented with insulin (20 nM) and triiodothyronine (T3, 1 nM) for 3 days, followed by incubation in an induction media (growth medium supplemented 20 nM insulin, 1 nM T3, 0.5 mM isobutyl-methylxanthine, 5 μM dexamethasone) for 2 days. The cell were then exposed to BMP7 (3.3 nM) or 200 ng/mL of FGF2, FGF6 or, FGF9 in growth media supplemented with insulin (20 nM) and triodothyronine (T3, 1 nM) for 2 additional days. Cells were harvested and UCP1 and PTGS2 mRNA expression levels were determined according to the quantitative RT-PCR assay described above. Experiments were performed in triplicate and the data presented as mean+/−SEM.

[1] = 50 ng/mL and 200 ng/mL with insulin and T3, three days
[2] = 50, 100 or 300 ng/mL with insulin and T3, three days, FGF1 effect at 300 ng/ml
[3] = FGF21 50 and 500 ng/mL, BMP7 3.3 nM, with insulin and T3

B1: FGF4: fibroblast growth factor 4, recombinant human, R&D Systems (protein, listed as Homo sapiens)
chain: MSGPGTAAVALLPAVLLALLAPWAGRGGAAAPTAPNGTLEAELERRWESLVALSLARLPVAAQPKEAAVQSGAGDYLLGIKRLRRLYCNVGIGFHLQALPDGRIGGAHADTRDSLLELSPVERGVVSIFGVASRFFVAMSSKGKLYGSPFFTDECTFKEILLPNNYNAYESYKYPGMFIALSKNGKTKKGNRVSPTMKVTHFLPRL
PTGS2 mRNA expression relative to the control (PTGS2 (COX2)): increased | UCP1 mRNA expression (UCP1; [1]): high levels of UCP1 mRNA expression

B2: FGF18: fibroblast growth factor 18 (protein, listed as Homo sapiens)
chain: MYSAPSACTCLCLHFLLLCFQVQVLVAEENVDFRIHVENQTRARDDVSRKQLRLYQLYSRTSGKHIQVLGRRISARGEDGDKYAQLLVETDTFGSQVRIKGKETEFYLCMNRKGKLVGKPDGTSKECVFIEKVLENNYTALMSAKYSGWYVGFTKKGRPRKGPKTRENQQDVHFMKRYPKGQPELQKPFKYTTVTKRSRRIRPTHPA
PTGS2 mRNA expression relative to the control (PTGS2 (COX2)): increased

B3: FGF10: fibroblast growth factor 10, keratinocyte growth factor 2 (protein, listed as Homo sapiens)
chain: MWKWILTHCASAFPHLPGCCCCCFLLLFLVSSVPVTCQALGQDMVSPEATNSSSSSFSSPSSAGRHVRSYNHLQGDVRWRKLFSFTKYFLKIEKNGKVSGTKKENCPYSILEITSVEIGVVAVKAINSNYYLAMNKKGKLYGSKEFNNDCKLKERIEENGYNTYASFNWQHNGRQMYVALNGKGAPRRGQKTRRKNTSAHFLPMVVHS
PTGS2 mRNA expression (PTGS2 (COX2); [2]): did not induce expression | expression of UCP1 (UCP1): not induced | UCP1 mRNA expression (UCP1; [2]): did not induce expression

B4: FGF5: fibroblast growth factor 5, recombinant human, R&D Systems (protein, listed as Homo sapiens)
chain: MSLSFLLLLFFSHLILSAWAHGEKRLAPKGQPGPAATDRNPRGSSSRQSSSSAMSSSSASSSPAASLGSQGSGLEQSSFQWSPSGRRTGSLYCRVGIGFHLQIYPDGKVNGSHEANMLSVLEIFAVSQGIVGIRGVFSNKFLAMSKKGKLHASAKFTDDCKFRERFQENSYNTYASAIHRTEKTGREWYVALNKRGKAKRGCSPRVKPQHISTHFLPRFKQSEQPELSFTVTVPEKKKPPSPIKPKIPLSAPRKNTNSVKYRLKFRFG
expression of UCP1 (UCP1): not induced

B5: BMP7: bone morphogenetic protein 7, rhBMP7 provided by Stryker Regenerative Medicine (protein, UniProt P18075 293-431, looked up)
Bone morphogenetic protein 7: STGSKQRSQNRSKTPKNQEALRMANVAENSSSDQRQACKKHELYVSFRDLGWQDWIIAPEGYAAYYCEGECAFPLNSYMNATNHAIVQTLVHFINPETVPKPCCAPTQLNAISVLYFDDSSNVILKKYRNMVVRACGCH
PTGS2 mRNA expression in cells undergoing adipocyte differentiation (UCP1 and PTGS2): minimal levels | UCP1 mRNA expression in cells undergoing adipocyte differentiation (UCP1 and PTGS2): minimal levels | UCP1 expression level at day 7 (UCP1; [3]): only minimal amounts | UCP1 expression level at days 1, 2 and 5 (UCP1; [3]): did not express detectable amounts of UCP1

B6: FGF17: fibroblast growth factor 17 (protein, listed as Homo sapiens)
chain: MGAARLLPNLTLCLQLLILCCQTQGENHPSPNFNQYVRDQGAMTDQLSRRQIREYQLYSRTSGKHVQVTGRRISATAEDGNKFAKLIVETDTFGSRVRIKGAESEKYICMNKRGKLIGKPSGKSKDCVFTEIVLENNYTAFQNARHEGWFMAFTRQGRPRQASRSRQNQREAHFIKRLYQGQLPFPNHAEKQKQFEFVGSAPTRRTKRTRRPQPLT
PTGS2 mRNA expression relative to the control (PTGS2 (COX2)): increased

B7: FGF22: fibroblast growth factor 22 (protein, listed as Homo sapiens)
chain: MRRRLWLGLAWLLLARAPDAAGTPSASRGPRSYPHLEGDVRWRRLFSSTHFFLRVDPGGRVQGTRWRHGQDSILEIRSVHVGVVVIKAVSSGFYVAMNRRGRLYGSRLYTVDCRFRERIEENGHNTYASQRWRRRGQPMFLALDRRGGPRPGGRTRRYHLSAHFLPVLVS
UCP1 mRNA expression (UCP1; [1]): not detectably induced
